Data on 2 proteins can be found in PMC3034312.

Substrate in this series: CC(C)=CCC/C(C)=C/CC/C(C)=C/CO[P@@](=O)(O)OP(=O)(O)O
Description: steady-state kinetics, 30-min radiolabel incubations. Type of series: biochemical, Streptomyces clavuligerus. Conditions: labelled compound ([1-3H]-FPP, 0.25 to 7.5 μM).

B1: SSCG_03688; (+)-T-muurolol synthase (Streptomyces clavuligerus) (protein)
chain: MSLNHSDLMFYCPVDDLPHPAASGVNDRTLDWASGQGIPTADRDAGRLRAMAPGLLAARIAPDARGPVLDAFADHHTWLFAFDDEYCDRADGSGITEWASFLARLHRVVETGESALLPGNPYGLALRDIACRLSTYTTPAQLAEWLEALRSYFAALVWERSRRRDDDRLQSLDDYLLLRLRNGAMHTSITLLDTVNGYVLPRELRETPGVRALVEMTALLVSVDNDILSHHKESTSGTREANLLDVLGRTGHTTPGEAVAQAVALRNEIMRQFVRVAERVRTPAAVPELYRFTTGLARWIRANLDFSLTTTRYTGPVTERAALSPHEVPPLSGQGPAPARSDVIGWWWRIPEPLPEPGSDGADTPVRKRRAGDRPPTAGRGGAPHHQRTGPPPPVLPGGITASRSSGLQQSTWRREHR
For the protein B1, the Km came to 2.7 ± 0.3 µM and the kcat was 1.63 ± 0.09 × 10^−3 s^−1.

B2: SSCG_02150; (−)-δ-cadinene synthase (Streptomyces clavuligerus) (protein)
chain: MSTRPVEGSAIWDVLSPHSPHAAAADGKTLVWVEAGELCGHDTAESANLARIRPGLLAAFCHPKATEDDLTLITKWMAWLFLLDDRIDESDLGRDADLLDGHLQDLQGVALGIRTASGPMSRALEEIITQASAGMGDAWQLRFRRNISDYLLACVWQAAHRQAGEFPDPEVFPHWRRAFGAIMPSFDLIERTDGGALPSCVYYSRPYQSLLTAAADLVCWTNDLMTVDKEAAHGDLHNLVLVTEHDRHQDRRTASAAVSAACEQRMRAHTSARRDLTGLTAALGLPDTVRTHADDCAASLLVWVRGHLEWGLETPRYRPGTTGTGTD
Take B2: the Km amounted to 1.4 ± 0.1 µM and the kcat was 1.14 ± 0.03 × 10^−3 s^−1.
